For experiment [1], the target named is baboon EL (baboon). As to the kind of experiment: cell-based or functional assay.
Experiment [2] deals with T1, mouse EL (mouse, UniProt Q9WVG5 21-500).
T1 sequence (looked up): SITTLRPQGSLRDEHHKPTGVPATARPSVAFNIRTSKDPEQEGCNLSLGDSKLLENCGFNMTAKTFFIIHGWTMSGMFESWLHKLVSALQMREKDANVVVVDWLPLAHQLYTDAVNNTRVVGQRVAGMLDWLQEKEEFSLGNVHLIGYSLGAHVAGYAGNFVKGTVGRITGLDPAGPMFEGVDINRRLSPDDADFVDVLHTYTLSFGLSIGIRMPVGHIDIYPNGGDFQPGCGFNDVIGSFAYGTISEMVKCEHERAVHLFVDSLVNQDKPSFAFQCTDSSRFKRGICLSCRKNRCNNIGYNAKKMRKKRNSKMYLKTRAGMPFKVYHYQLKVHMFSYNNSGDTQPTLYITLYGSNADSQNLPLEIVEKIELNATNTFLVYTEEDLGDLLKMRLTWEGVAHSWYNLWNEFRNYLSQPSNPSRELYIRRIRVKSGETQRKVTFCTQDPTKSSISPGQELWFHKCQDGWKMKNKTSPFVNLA
As to the kind of experiment: cell-based or functional assay.

In experiment [3] the target is T2, baboon EL (baboon).
T2 construct: Heparin extract
As to the kind of experiment: Biacore; EL captured by anti-C2-tag Ab; bivalent fit. The procedure:
(§1) The binding affinities of anti-EL antibodies were measured using Biacore. […] Then, anti-EL humanized antibodies were added and the binding affinities were calculated by bivalent fitting of BIAevaluation software.

Experiment [4] deals with T1, mouse EL. The experiment is described as above. The protocol:
as §1

The next experiment addresses rabbit EL (rabbit). Briefly: cell-based or functional assay.
In experiment [5] the target is T2, baboon EL. As to the kind of experiment: cell-based or functional assay. The source holds these as a separate data set.
The target of experiment [6] is T3, human [1-305]-mouse chimeric EL (human; mouse, UniProt Q9WVG5 306-500).
T3 sequence: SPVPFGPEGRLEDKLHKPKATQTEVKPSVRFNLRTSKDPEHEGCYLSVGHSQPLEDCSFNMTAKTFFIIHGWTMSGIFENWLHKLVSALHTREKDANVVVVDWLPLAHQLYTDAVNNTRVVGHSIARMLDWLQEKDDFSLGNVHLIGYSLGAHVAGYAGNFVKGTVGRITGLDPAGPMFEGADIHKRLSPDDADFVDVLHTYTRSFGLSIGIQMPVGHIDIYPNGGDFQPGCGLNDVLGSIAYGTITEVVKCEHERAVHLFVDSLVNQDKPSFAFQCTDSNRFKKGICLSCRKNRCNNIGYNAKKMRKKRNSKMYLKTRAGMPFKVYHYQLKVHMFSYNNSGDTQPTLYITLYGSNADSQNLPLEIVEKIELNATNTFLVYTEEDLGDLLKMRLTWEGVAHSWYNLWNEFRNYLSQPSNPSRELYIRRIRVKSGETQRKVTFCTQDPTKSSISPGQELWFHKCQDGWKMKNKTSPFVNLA
As to the kind of experiment: cell-based or functional assay.

Experiment [7] concerns the target T1, mouse EL. Briefly: cell-based or functional assay. This is another data set of the same source.
The target in experiment [8] is T2, baboon EL. Briefly: Biacore (as for the other anti-EL antibodies).
For experiment [9], the target named is T3, human [1-305]-mouse chimeric EL. As to the kind of experiment: Biacore (as for the other anti-EL antibodies). A general note: In SPR one partner is held on a chip, and binding of the other changes the refractive index at the surface.
Experiment [10] concerns the target T1, mouse EL. Briefly: Biacore (as for the other anti-EL antibodies).
The target of experiment [11] is T2, baboon EL. Briefly: ELISA: antibody captured on anti-mouse IgG-Fc plate, EL heparin extract added, detection with biotin anti-C2-tag antibody and HRP-streptavidin, A450. Background: An ELISA detects its analyte on a solid surface through an enzyme-linked reagent.
Experiment [12] concerns the target T3, human [1-305]-mouse chimeric EL. The description is as above.
In a further experiment the target is T4, Chimeric EL [187-500] (mouse;human).
T4 construct: construct not described further; Used as heparin extract and detected through anti-C2-tag antibody; also called human (187-500) mouse chimera EL
Described as above.

The values below come from patent US20200071424A1 (SHIONOGI, published 2020).

Like-named read-outs stand apart in the source and are kept apart here.

B1: h16F6-S1 (antibody, V domains shown)
VH: QVQLVQSGAEVKKPGASVKVSCKASGYTFTTYWIAWVRQAPGQGLEWMGEILPGSAKTKYNKKFKGRVTMTRDTSTSTVYMELSSLRSEDTAVYYCAVYDYGADYWGQGTTVTVSS
VL: DIQMTQSPSSLSASVGDRVTITCKASQDVYTAVAWYQQKPGKSPKLLIYSASYRFTGVPSRFSGSGSGTDFTLTISSLQPEDFATYYCQQHYSIPRTFGGGTKVEIK
notes: humanized
A word on the koff: it is the first-order rate constant of dissociation. As a reminder, the kon is a measure of how fast the partners come together. Read a high kon as faster complex formation. With B1, the “Neutralizing activity IC50” value with baboon EL [1] came out at 2.6 nM. For the same molecule, the “Neutralizing activity IC50” value with mouse EL [2] turned out to be 3.1 nM. In the experiment with baboon EL [3], this molecule registered a Kd of 0.57 nM, a koff of 0.00074 s⁻¹ and a kon of 1.3e+06 M⁻¹ s⁻¹. For the same molecule, in the experiment with mouse EL [4], the Kd is 0.16 nM, the koff is 0.00019 s⁻¹ and the kon is 1.2e+06 M⁻¹ s⁻¹.

B2: 16F6 (antibody, V domains shown)
VH: QVQLQQSGAELMKPGASVKISCKATGYTFSTYWIAWVKQRPGHGLEWIGEILPGSAKTKYNKKFKGKATFTADTSSNTAYMQLSSLTSEDSAVYYCAVYDYGADYWGQGTSVTVSS
VL: DIVMTQSHKFMSTSVGDRVSITCKASQDVYTAVAWYQQKPGQSPKLLIYSASYRFTGVPDRFTGSGAGTEFTFTINSVQAEDLAVYYCQQHYSIPRTFGGGTKLEIK
notes: mouse IgG1 raised in EL knock-out mice; not tied one by one
What is called EC50 (read off the curve) is the concentration that produces a half-maximal response. Low values mean a more potent agent, high ones a less potent agent. B2: the “Neutralizing activity IC50” value came out at 2.3 nM with rabbit EL, 2.8 nM with baboon EL [5], 4 nM in experiment [6] and 2.5 nM with mouse EL [7]. Further, the Kd in the experiment with baboon EL [8] is 0.42 nM; in experiment [9] it was 14 nM; in the experiment with mouse EL [10], 0.68 nM. In addition, the values for the koff (in the experiment with baboon EL [8]; in [9]; in the experiment with mouse EL [10]) were 0.0001 s⁻¹, 0.004 s⁻¹ and 0.00015 s⁻¹, respectively. Besides, the kon in the experiment with baboon EL [8] was determined as 240000 M⁻¹ s⁻¹; in experiment [9] it was 330000 M⁻¹ s⁻¹; with mouse EL [10], 220000 M⁻¹ s⁻¹. Further, the “EC50 (read off the curve)” value in the experiment with baboon EL [11] was about 0.02 µg/mL; in [12], about 0.002 µg/mL; in the experiment with Chimeric EL [187-500] it was about 0.02 µg/mL.
